Numbering of substitutions follows the chain as printed.
B1: toripalimab Fab L.V99I (Fab, V domains shown)
VH: QGQLVQSGAEVKKPGASVKVSCKASGYTFTDYEMHWVRQAPIHGLEWIGVIESETGGTAYNQKFKGRVTITADKSTSTAYMELSSLRSEDTAVYYCAREGITTVATTYYWYFDVWGQGTTVTVSS
VL: DVVMTQSPLSLPVTLGQPASISCRSSQSIVHSNGNTYLEWYLQKPGQSPQLLIYKVSNRFSGVPDRFSGSGSGTDFTLKISRVEAEDVGVYYCFQGSHIPLTFGQGTKLEIK
notes: as the heavy chain of Sm3; light chain of Sm3 with this change; numbers count from the chain's first residue; source: Brevibacillus, culture supernatant (ammonium sulfate precipitate); not shown: 6xHis, C-terminal, kept; 6xHN, C-terminal, kept
B2: toripalimab Fab L.P100I (Fab, V domains shown)
VH: B1 VH
VL: B1 VL with I99V, P100I
notes: as for B1
B3: toripalimab Fab L.V99L (Fab, V domains shown)
VH: B1 VH
VL: B1 VL with I99L
notes: as for B1
B4: toripalimab Fab L.P100K (Fab, V domains shown)
VH: B1 VH
VL: B1 VL with I99V, P100K
notes: as for B1
B5: toripalimab Fab L.P100F (Fab, V domains shown)
VH: B1 VH
VL: B1 VL with I99V, P100F
notes: as for B1
B6: toripalimab Fab H.E52Y (Fab, V domains shown)
VH: B1 VH with E52Y
VL: B1 VL with I99V
notes: heavy chain of Sm3 with this change; numbers count from the chain's first residue; as the light chain of Sm3; source: Brevibacillus, culture supernatant (ammonium sulfate precipitate); not shown: 6xHis, C-terminal, kept; 6xHN, C-terminal, kept
B7: toripalimab Fab L.P100N (Fab, V domains shown)
VH: B1 VH
VL: B1 VL with I99V, P100N
notes: as for B1
B8: toripalimab Fab H.S53A (Fab, V domains shown)
VH: B1 VH with S53A
VL: B1 VL with I99V
notes: as for B6
B9: toripalimab Fab L.P100S (Fab, V domains shown)
VH: B1 VH
VL: B1 VL with I99V, P100S
notes: as for B1
B10: toripalimab Fab L.V99K (Fab, V domains shown)
VH: B1 VH
VL: B1 VL with I99K
notes: as for B1
B11: toripalimab Fab L.P100A (Fab, V domains shown)
VH: B1 VH
VL: B1 VL with I99V, P100A
notes: as for B1
B12: toripalimab Fab L.P100Q (Fab, V domains shown)
VH: B1 VH
VL: B1 VL with I99V, P100Q
notes: as for B1
B13: toripalimab Fab L.P100G (Fab, V domains shown)
VH: B1 VH
VL: B1 VL with I99V, P100G
notes: as for B1
B14: toripalimab Fab L.P100L (Fab, V domains shown)
VH: B1 VH
VL: B1 VL with I99V, P100L
notes: as for B1
B15: toripalimab Fab L.V99Y (Fab, V domains shown)
VH: B1 VH
VL: B1 VL with I99Y
notes: as for B1
B16: toripalimab Fab L.V99W (Fab, V domains shown)
VH: B1 VH
VL: B1 VL with I99W
notes: as for B1
B17: toripalimab Fab L.V99Q (Fab, V domains shown)
VH: B1 VH
VL: B1 VL with I99Q
notes: as for B1
B18: toripalimab Fab L.P100R (Fab, V domains shown)
VH: B1 VH
VL: B1 VL with I99V, P100R
notes: as for B1
B19: toripalimab Fab L.P100H (Fab, V domains shown)
VH: B1 VH
VL: B1 VL with I99V, P100H
notes: as for B1
B20: toripalimab Fab L.V99P (Fab, V domains shown)
VH: B1 VH
VL: B1 VL with I99P
notes: as for B1
B21: toripalimab Fab L.V99M (Fab, V domains shown)
VH: B1 VH
VL: B1 VL with I99M
notes: as for B1
B22: toripalimab Fab L.V99N (Fab, V domains shown)
VH: B1 VH
VL: B1 VL with I99N
notes: as for B1
B23: toripalimab Fab L.P100E (Fab, V domains shown)
VH: B1 VH
VL: B1 VL with I99V, P100E
notes: as for B1
B24: toripalimab Fab L.P100M (Fab, V domains shown)
VH: B1 VH
VL: B1 VL with I99V, P100M
notes: as for B1
B25: toripalimab Fab L.V99S (Fab, V domains shown)
VH: B1 VH
VL: B1 VL with I99S
notes: as for B1
B26: toripalimab Fab L.P100D (Fab, V domains shown)
VH: B1 VH
VL: B1 VL with I99V, P100D
notes: as for B1

Each binder was assayed against T1, human programmed cell death protein 1 (hPD-1) C93S (aa 24-167) (Homo sapiens, UniProt Q15116, C93S) (assay: SPR; Carterra LSA; Fab from the ammonium sulfate precipitate of the culture supernatant immobilised on a NiHC200M chip; hPD-1 (1-1024 nM) or mPD-1-Fc (4-1024 nM) as analyte, fourfold dilution series, no regeneration; HBS-EP pH 7.4, 25 °C; medians over the spots of a construct, KD = koff/kon). Conditions: one partner purified.
T1 construct: made as a fusion with a TEV site and human Fc; the Fc was cut off with TEV protease; source: Expi293F, purified (Protein A, TEV cleavage of Fc, SEC; monomer fractions); not shown: Fc (human), C-terminal, cleaved
T1 sequence (Q15116 24-167 C93S): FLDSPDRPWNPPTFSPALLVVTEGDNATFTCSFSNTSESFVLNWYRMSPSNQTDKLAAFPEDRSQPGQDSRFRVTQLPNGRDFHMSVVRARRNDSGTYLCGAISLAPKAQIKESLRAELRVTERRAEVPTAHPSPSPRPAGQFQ
Method in brief: (§1)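 Fabs, ammonium sulfate-precipitated from Brevibacillus supernatants and redissolved in HBS-EP, were captured in duplicate on a NiHC200M chip on a Carterra LSA at 25 °C. Fourfold series of human PD-1 (1–1024 nM) or mouse PD-1-Fc (4–1024 nM) were run without regeneration, with association for 10 min and dissociation for 5 min. Rates were fitted with the kdka model, choosing the better of slow- or fast-dissociation settings, and unconfirmed binders were given kon 10^3 […] and koff 10^−2 s^−1. The dissociation constant KD is koff/kon based on per-construct medians.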

Binder	Kd [µM]	koff [s⁻¹]	kon [M⁻¹ s⁻¹]
B1	< 0.0007	< 1e-05	14300
B2	0.0123	8.88e-05	7200
B3	< 0.00143	< 1e-05	7020
B4	0.00778	5.19e-05	6670
B5	0.009	6.35e-05	7060
B6	0.0494	0.000629	12700
B7	0.00139	2.33e-05	16800
B8	< 0.00127	< 1e-05	7880
B9	< 0.00159	< 1e-05	6280
B10	0.0307	0.000131	4260
B11	< 0.000513	< 1e-05	19500
B12	0.00925	7.95e-05	8600
B13	0.00499	3.76e-05	7550
B14	0.0138	0.000129	9280
B15	0.00501	0.000155	30900
B16	0.0453	0.000522	11500
B17	0.00806	6.39e-05	7930
B18	0.00213	1.32e-05	6230
B19	0.00224	1.56e-05	6960
B20	0.0198	0.000192	9660
B21	0.00143	3.17e-05	22100
B22	0.00303	5.61e-05	18500
B23	< 0.000554	< 1e-05	18100
B24	0.00381	5.38e-05	14100
B25	< 0.00116	< 1e-05	8660
B26	< 0.00132	< 1e-05	7580

The binders below were run against T2, mouse programmed cell death protein 1 Fc fusion protein (mPD-1-Fc), mPD-1 C60S (aa 25-167) (Mus musculus, UniProt Q02242, stabilised) in the same assay as above. Conditions: one partner purified.
T2 construct: not cleaved; source: Expi293F, purified (Protein A, SEC; dimeric fraction); not shown: Fc (human), C-terminal, kept
Method in brief: as §1

Binder	Kd [µM]	koff [s⁻¹]	kon [M⁻¹ s⁻¹]
B1	0.289	0.014	48500
B2	0.0232	0.000324	13900
B3	0.407	0.00629	15500
B4	0.0606	0.000824	13600
B5	< 0.00108	< 1e-05	9270
B6	0.6	0.149	247000
B7	0.0159	0.0003	18900
B8	0.094	0.00411	43700
B9	0.0459	0.00105	22900
B10	0.285	0.00439	15400
B11	0.0898	0.00349	38900
B12	0.00831	9.77e-05	11800
B13	0.0228	0.000384	16800
B14	0.00999	0.000147	14700
B15	0.576	0.0369	63900
B16	0.254	0.0065	25600
B17	0.445	0.0167	37600
B18	0.0247	0.000274	11100
B19	< 0.00106	< 1e-05	9460
B20	0.0247	0.0007	28300
B21	0.59	0.00702	11900
B22	0.169	0.00665	39400
B23	0.0198	0.000491	24800
B24	0.00848	0.000121	14200
B25	0.00451	6.95e-05	15400
B26	0.0474	0.00142	30100

— PMC10663500, “High-throughput analysis system of interaction kinetics for data-driven antibody design” (Scientific Reports, 2023)
